Measurements: the supplement of paper PMC11246515
± gives the standard deviation of the averaged measurements.

Assay: total protein half-life in vivo (active degradation + dilution); higher = more stable protein
[1] = E. coli NCM3722 delta-clpP delta-lon delta-hslV, growth: N-lim chemostat, doubling time 6 h
[2] = E. coli NCM3722 delta-clpP, growth: N-lim chemostat, doubling time 6 h
[3] = E. coli NCM3722 delta-hslV, growth: N-lim chemostat, doubling time 6 h
[4] = E. coli NCM3722 delta-lon, growth: N-lim chemostat, doubling time 6 h
[5] = E. coli NCM3722 delta-smpB, growth: N-lim chemostat, doubling time 6 h
[6] = wild type E. coli NCM3722, growth: C-lim chemostat, doubling time 3 h
[7] = wild type E. coli NCM3722, growth: C-lim chemostat, doubling time 6 h
[8] = wild type E. coli NCM3722, growth: C-lim chemostat, doubling time 12 h
[9] = wild type E. coli NCM3722, growth: N-lim chemostat, doubling time 6 h
[10] = wild type E. coli NCM3722, growth: N-lim chemostat, doubling time 12 h
[11] = wild type E. coli NCM3722, growth: P-lim chemostat, doubling time 6 h
[12] = wild type E. coli NCM3722, growth: P-lim chemostat, doubling time 12 h

Sequence	total protein half-life in vivo [1] [h]	total protein half-life in vivo [2] [h]	total protein half-life in vivo [3] [h]	total protein half-life in vivo [4] [h]	total protein half-life in vivo [5] [h]	total protein half-life in vivo [6] [h]	total protein half-life in vivo [7] [h]	total protein half-life in vivo [8] [h]	total protein half-life in vivo [9] [h]	total protein half-life in vivo [10] [h]	total protein half-life in vivo [11] [h]	total protein half-life in vivo [12] [h]
MKRNAKTIIAGMIALAISHTAMADDIKVAVVGAMSGPIAQWGDMEFNGARQAIKDINAKGGIKGDKLVGVEYDDACDPKQAVAVANKIVNDGIKYVIGHLCSSSTQPASDIYEDEGILMISPGATNPELTQRGYQHIMRTAGLDSSQGPTAAKYILETVKPQRIAIIHDKQQYGEGLARSVQDGLKAANANVVFFDGITAGEKDFSALIARLKKENIDFVYYGGYYPEMGQMLRQARSVGLKTQFMGPEGVGNASLSNIAGDAAEGMLVTMPKRYDQDPANQGIVDALKADKKDPSGPYVWITYAAVQSLATALERTGSDEPLALVKDLKANGANTVIGPLNWDEKGDLKGFDFGVFQWHADGSSTAAK	5.85 ± 0.11	6.16 ± 0.79	6.48 ± 0.55	5.84 ± 0.097	6.01 ± 0.47	3.077 ± 0.0084	6.134 ± 0.039	11.9 ± 0.26	5.87 ± 0.27	12.2 ± 0.64	5.65 ± 0.13	14.3 ± 1.1
MTTHLVWFRQDLRLHDNLALAAACRNSSARVLALYIATPRQWATHNMSPRQAELINAQLNGLQIALAEKGIPLLFREVDDFVASVEIVKQVCAENSVTHLFYNYQYEVNERARDVEVERALRNVVCEGFDDSVILPPGAVMTGNHEMYKVFTPFKNAWLKRLREGMPECVAAPKVRSSGSIEPSPSITLNYPRQSFDTAHFPVEEKAAIAQLRQFCQNGAGEYEQQRDFPAVEGTSRLSASLATGGLSPRQCLHRLLAEQPQALDGGAGSVWLNELIWREFYRHLITYHPSLCKHRPFIAWTDRVQWQSNPAHLQAWQEGKTGYPIVDAAMRQLNSTGWMHNRLRMITASFLVKDLLIDWREGERYFMSQLIDGDLAANNGGWQWAASTGTDAAPYFRIFNPTTQGEKFDHEGEFIRQWLPELRDVPGKVVHEPWKWAQKAGVTLDYPQPIVEHKEARVQTLAAYEAARKGK	5.62 ± 0.31	6.1 ± 1	6.2 ± 0.4	6.08 ± 0.8	5.35 ± 0.34	3.23 ± 0.22	6.25 ± 0.49	11.533 ± 0.011	5.49 ± 0.16	11.1 ± 0.21	6.17 ± 0.76	11.62 ± 0.014
MKYQLTALEARVIGCLLEKQVTTPEQYPLSVNGVVTACNQKTNREPVMNLSESEVQEQLDNLVKRHYLRTVSGFGNRVTKYEQRFCNSEFGDLKLSAAEVALITTLLLRGAQTPGELRSRAARMYEFSDMAEVESTLEQLANREDGPFVVRLAREPGKRENRYMHLFSGEVEDQPAVTDMSNAVDGDLQARVEALEIEVAELKQRLDSLLAHLGD	–	5.48 ± 0.32	6.03 ± 0.02	6.75 ± 0.25	5.16 ± 0.098	3.01 ± 0.35	6.003 ± 0.036	9.65 ± 0.61	4.69 ± 0.64	10.6 ± 0.71	5.38 ± 0.72	12.8 ± 1.3
MTQFASPVLHSLLDTDAYKLHMQQAVFHHYYDVHVAAEFRCRGDDLLGIYADAIREQVQAMQHLRLQDDEYQWLSALPFFKADYLNWLREFRFNPEQVTVSNDNGKLDIRLSGPWREVILWEVPLLAVISEMVHRYRSPQADVAQALDTLESKLVDFSALTAGLDMSRFHLMDFGTRRRFSREVQETIVKRLQQESWFVGTSNYDLARRLSLTPMGTQAHEWFQAHQQISPDLANSQRAALAAWLEEYPDQLGIALTDCITMDAFLRDFGVEFASRYQGLRHDSGDPVEWGEKAIAHYEKLGIDPQSKTLVFSDNLDLRKAVELYRHFSSRVQLSFGIGTRLTCDIPQVKPLNIVIKLVECNGKPVAKLSDSPGKTICHDKAFVRALRKAFDLPHIKKAS	4.31 ± 1.6	3.07 ± 0.44	2.98 ± 0.068	4.11 ± 0.88	2.95 ± 0.13	2.28 ± 0.31	4.04 ± 0.27	5.56 ± 0.35	2.92 ± 0.065	4.49 ± 0.41	3.57 ± 0.071	5.37 ± 1
MMGKLIWLMGPSGSGKDSLLAELRLREQTQLLVAHRYITRDASAGSENHIALSEQEFFTRAGQNLLALSWHANGLYYGVGVEIDLWLHAGFDVLVNGSRAHLPQARARYQSALLPVCLQVSPEILRQRLENRGRENASEINARLARAARYTPQDCHTLNNDGSLRQSVDTLLTLIHQKEKHHACL	5.33	–	–	–	–	–	–	–	–	–	0.578	1.28
MILHPSLASANPLHYGRELTALDNLDFGSLHLDIEDSSFINNITFGMKTVQAVARQTPHPLSFHFMLARPQRWFNALAEIRPAWIFVHAETLDYPSETLTEIRHTGARAGLVFNPATPIDAWRYLASELDGVMVMTSEPDGQGQRFIPSMCEKIQKVRTAFPQTECWADGGITLAAAQQLAAAGAQHMVIGRALFSSSDYRATLAQFATL	5.63 ± 0.16	–	–	–	–	–	1.44	0.974	–	–	–	–
MSEKTFLVEIGTEELPPKALRSLAESFAANFTAELDNAGLAHGTVQWFAAPRRLALKVANLAEAQPDREIEKRGPAIAQAFDAEGKPSKAAEGWARGCGITVDQAERLTTDKGEWLLYRAHVKGESTEALLPNMVATSLAKLPIPKLMRWGASDVHFVRPVHTVTLLLGDKVIPATILGIQSDRVIRGHRFMGEPEFTIDNADQYPEILRERGKVIADYEERKAKIKADAEEAARKIGGNADLSESLLEEVASLVEWPVVLTAKFEEKFLAVPAEALVYTMKGDQKYFPVYANDGKLLPNFIFVANIESKDPQQIISGNEKVVRPRLADAEFFFNTDRKKRLEDNLPRLQTVLFQQQLGTLRDKTDRIQALAGWIAEQIGADVNHATRAGLLSKCDLMTNMVFEFTDTQGVMGMHYARHDGEAEDVAVALNEQYQPRFAGDDLPSNPVACALAIADKMDTLAGIFGIGQHPKGDKDPFALRRAALGVLRIIVEKNLNLDLQTLTEEAVRLYGDKLTNANVVDDVIDFMLGRFRAWYQDEGYTVDTIQAVLARRPTRPADFDARMKAVSHFRTLDAAAALAAANKRVSNILAKSDEVLSDRVNASTLKEPEEIKLAMQVVVLRDKLEPYFTEGRYQDALVELAELREPVDAFFDKVMVMVDDKELRINRLTMLEKLRELFLRVADISLLQ	6.02 ± 0.36	6.28 ± 0.94	5.56 ± 0.53	5.82 ± 0.65	5.74 ± 0.6	3.278 ± 0.0052	5.89 ± 0.085	11 ± 1	5.72 ± 0.31	10.5 ± 0.11	6.31 ± 0.44	12.2 ± 1.2
MEQLRAELSHLLGEKLSRIECVNEKADTALWALYDSQGNPMPLMARSFSTPGKARQLAWKTTMLARSGTVRMPTIYGVMTHEEHPGPDVLLLERMRGVSVEAPARTPERWEQLKDQIVEALLAWHRQDSRGCVGAVDNTQENFWPSWYRQHVEVLWTTLNQFNNTGLTMQDKRILFRTRECLPALFEGFNDNCVLIHGNFCLRSMLKDSRSDQLLAMVGPGLMLWAPREYELFRLMDNSLAEDLLWSYLQRAPVAESFIWRRWLYVLWDEVAQLVNTGRFSRRNFDLASKSLLPWLA [P0AB03]	5.11	4.02	2.54 ± 0.47	2.51	1.57	2.16 ± 0.1	3.92 ± 0.21	6.84 ± 0.48	–	–	3.8	7.86
